From US20260242487A1 (HANGZHOU ZHONGMEIHUADONG PHARMACEUTICAL, published 2026)

Experiments:
[1] = molecular target: T1, hFGFR2b-Fc (Kactus, Catalog #FGR-HM2BB) (human, UniProt P21802-3 22-378, biotinylated in Example 9 (printed as biotin-hFGFR2b-Fc; site not stated)); test: competition ELISA: inhibition of FGF7-his binding to coated hFGFR2b-Fc
T1 construct: Bought reagent; also called biotin-hFGFR2b-Fc; not shown: Fc part
Protocol: (§1) Inhibition of binding of FGF7 and FGF10 to FGFR2b by anti-FGFR2b antibodies was measured by ELISA assay. Each step of each assay was performed by room temperature incubation with the appropriate reagent for 1 hour, except the initial plate coating step was done overnight at 4° C. Between each step, plates were washed 3 times in PBS containing 0.05% Tween 20.
(§2) To determine the abilities of the anti-FGFR2b mAbs to block ligand binding to FGFR2b, plates were coated with 1 μg/ml hFGFR2b-Fc (Kactus, Catalog #FGR-HM2BB), and followed by blocking with 2% BSA. The plates were next incubated with human FGF7-his (20 nM, Sino Biological, Catalog #10210-H07E) or biotin-FGF10 (5 nM, Kactus, Catalog #FGF-HE010B) in the presence of serial diluted (1:5) anti-FGFR2b mAbs, and the bound ligands were detected with HRP-anti 6×His tag (Abcam, Catalog #ab1187) or Streptavidin-Protein HRP (Thermo, Catalog #21126) and TMB substrate (Cell Signaling, Catalog #7004P6).

[2] = molecular target: T1, hFGFR2b-Fc (Kactus, Catalog #FGR-HM2BB); test: competition ELISA: inhibition of biotin-FGF10 binding to coated hFGFR2b-Fc
Protocol: as §1, §2

[3] = molecular target: T2, human FGFR2b expressed on cells (hFGFR2b-expressing CHOK1 cells); Ba/F3 cells expressing full-length human … (human, UniProt P21802-3 22-822); test: flow cytometry on CHOK1 cells expressing hFGFR2b, detection with APC anti-human IgG Fc
T2 construct: whole, on cells; also called FGFR2IIIb; CHOK1-FGFR2IIIb transfectants
Protocol: Appropriate cells (1×10⁵) were washed twice in FACS buffer (PBS+2% BSA), resuspended in 100 μl of FACS buffer containing serial diluted (1:5) anti-FGFR2b mAbs, and incubated at 4° C. for 1 hour. Cells were then washed twice in FACS buffer and the bound antibodies were detected by incubation with APC anti-human IgG Fc (Biolegend, Catalog #410712) for 1 hour at 4° C. After washing twice in FACS buffer, cells were analyzed on a Cytoflex (Beckmann Coulter). Aprutumab was also tested as a positive control which can bind to both FGFR2b and FGFR2c.

[4] = molecular target: T3, FGFR2b-his (human, UniProt P21802-3 22-378); test: surface plasmon resonance (Octet, Sartorius): antibody immobilized by amine coupling, FGFR2b-his flowed over
T3 construct: also called human FGFR2b antigen; human FGFR2b (FGFR2b-his); not shown: his tag
Protocol: The binding affinities of anti-FGFR2b mAbs for human FGFR2b (FGFR2b-his) was measured using surface plasmon resonance (Octet, Sartorius). Anti-FGFR2b mAbs were immobilized on a dextran chip using the amine coupling kit and 100 mM ethylenediamine in 100 mM sodium borate, pH 8.0, was used as the blocking reagent. FGFR2b-his proteins diluted in HEPES-buffered saline with 0.05% surfactant P20 running buffer were flowed over the immobilized antibody.

T3 sequence (P21802 other isoform, or with tags, fused parts or gaps): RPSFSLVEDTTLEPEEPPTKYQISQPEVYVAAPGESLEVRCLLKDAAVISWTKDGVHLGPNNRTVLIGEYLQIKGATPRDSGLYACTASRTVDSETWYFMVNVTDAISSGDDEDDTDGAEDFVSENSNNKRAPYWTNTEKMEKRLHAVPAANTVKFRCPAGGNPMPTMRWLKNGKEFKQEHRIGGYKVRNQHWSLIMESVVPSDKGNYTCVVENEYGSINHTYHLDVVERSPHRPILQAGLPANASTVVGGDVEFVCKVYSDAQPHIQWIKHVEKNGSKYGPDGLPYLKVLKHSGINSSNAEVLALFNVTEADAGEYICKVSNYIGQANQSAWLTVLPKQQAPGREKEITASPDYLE
T2 sequence (P21802 other isoform, or with tags, fused parts or gaps): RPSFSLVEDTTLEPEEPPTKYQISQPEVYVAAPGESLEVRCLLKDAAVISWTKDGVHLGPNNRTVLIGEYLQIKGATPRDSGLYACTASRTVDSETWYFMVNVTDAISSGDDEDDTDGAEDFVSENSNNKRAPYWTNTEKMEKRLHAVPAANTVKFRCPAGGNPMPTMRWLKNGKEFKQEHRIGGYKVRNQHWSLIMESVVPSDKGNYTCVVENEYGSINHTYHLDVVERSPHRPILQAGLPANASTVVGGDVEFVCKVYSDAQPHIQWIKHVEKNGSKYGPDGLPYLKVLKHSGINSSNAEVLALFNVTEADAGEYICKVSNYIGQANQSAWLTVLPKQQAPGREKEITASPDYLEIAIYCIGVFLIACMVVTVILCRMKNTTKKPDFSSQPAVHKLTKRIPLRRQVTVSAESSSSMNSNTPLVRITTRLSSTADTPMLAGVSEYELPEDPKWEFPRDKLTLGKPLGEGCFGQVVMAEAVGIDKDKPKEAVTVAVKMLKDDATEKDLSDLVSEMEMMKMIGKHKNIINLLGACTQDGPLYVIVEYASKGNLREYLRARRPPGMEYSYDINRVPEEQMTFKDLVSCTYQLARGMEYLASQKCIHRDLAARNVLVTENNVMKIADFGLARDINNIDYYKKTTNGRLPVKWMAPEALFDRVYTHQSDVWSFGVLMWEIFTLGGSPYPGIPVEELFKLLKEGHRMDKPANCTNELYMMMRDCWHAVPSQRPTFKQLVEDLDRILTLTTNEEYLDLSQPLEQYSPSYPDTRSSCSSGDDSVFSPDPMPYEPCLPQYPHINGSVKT

IC50 [1]: 3.82 nM
IC50 [2]: 4.99 nM
EC50 (read off the curve) [3]: ~0.4 nM
Kd [4]: 26.7 nM
koff [4]: 0.005 s⁻¹
kon [4]: 187000 M⁻¹ s⁻¹
B1: HC18 (antibody, human IgG1, kappa, V domains shown)
VH: EVQLQQSGTVLARPGASVKMSCKTSGYTFTSYWMHWVKQRPGQGLEWIGSIYPENSDTSYNQKFKGKAKLTAVTSASTAYMDLSSLTNEDSAVYYCSIYHGYDGDYWGQGTTLTVSS
VL: QIVLTQSPAIMSASPGEKVTITCSASSSVSYMYWFQQKPGTSPKLWIYSTSNLASGVPARFSGSGSGTSYSLTISRMEAEDAATYYCQQRSSYPYTFGGGTKLEIKR
notes: also called mAb HC18; the antibody of the present disclosure
